This note sets out measurements from the supplement of paper PMC5998384.

In data set [1] the test system is HeLa Kyoto. Kind of data set: solubility in G1/S (NP-40 vs SDS abundance) (log2 ratio); higher = more soluble. The following applies: cell cycle stage: G1/S.
Data set [2] relates to HeLa Kyoto. Kind of data set: thermal stability score vs G1/S (z-score of summed log2 fold changes over temperatures); higher = more thermally stable than in G1/S.
Data set [3] deals with HeLa Kyoto. Kind of data set: solubility change mitosis vs G1/S (difference of NP-40 vs SDS log2 ratios) (log2 ratio difference); higher = more soluble in mitosis.
Data set [4] has as its system HeLa Kyoto. In words: melting temperature (median over replicates), in situ; higher = more thermally stable.
[5] abbreviates: cell cycle stage: early G1 (4.5 h after nocodazole release).
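Wherever melting temperature (median over replicates), in situ is given: HeLa Kyoto cells synchronized by double thymidine or nocodazole block, proteins quantified by TMT10plex mass spectrometry, three independent biological replicates.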
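Wherever solubility change mitosis vs G1/S (difference of NP-40 vs SDS log2 ratios) is given: synchronized HeLa Kyoto cells (double thymidine block for G1/S, nocodazole release for mitosis), protein amounts in NP-40 versus SDS lysates quantified by mass spectrometry, three biological replicates.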
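Wherever solubility in G1/S (NP-40 vs SDS abundance) is given: HeLa Kyoto cells arrested at G1/S by double thymidine block, proteins quantified by TMT10plex mass spectrometry in mild NP-40 versus SDS extracts, three biological replicates.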
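Wherever thermal stability score vs G1/S (z-score of summed log2 fold changes over temperatures) is given: synchronized HeLa Kyoto cells, proteins quantified by TMT10plex mass spectrometry, three biological replicates, mitosis taken 0.5 h after nocodazole release, G1/S directly after double thymidine block.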

In the case of “MFRLNSLSALAELAVGSRWYHGGSQPIQIRRRLMMVAFLGASAVTASTGLLWKRAHAESPPCVDNLKSDIGDKGKNKDEGDVCNHEKKTADLAPHPEEKKKKRSGFRDRKVMEYENRIRAYSTPDKIFRYFATLKVISEPGEAEVFMTPEDFVRSITPNEKQPEHLGLDQYIIKRFDGKKISQEREKFADEGSIFYTLGECGLISFSDYIFLTTVLSTPQRNFEIAFKMFDLNGDGEVDMEEFEQVQSIIRSQTSMGMRHRDRPTTGNTLKSGLCSALTTYFFGADLKGKLTIKNFLEFQRKLQHDVLKLEFERHDPVDGRITERQFGGMLLAYSGVQSKKLTAMQRQLKKHFKEGKGLTFQEVENFFTFLKNINDVDTALSFYHMAGASLDKVTMQQVARTVAKVELSDHVCDVVFALFDCDGNGELSNKEFVSIMKQRLMRGLEKPKDMGFTRLMQAMWKCAQETAWDFALPKQ [MICU1]”, in the data set on HeLa Kyoto [1], the “solubility in G1/S (log2)” value is -0.299. Besides, the thermal stability score is 1.14 with HeLa Kyoto [2] (setting [5]) and 1.13 with HeLa Kyoto [2] (cell cycle stage: mitosis). Also, the “solubility change mitosis (log2)” value in the data set on HeLa Kyoto [3] is -0.00566. Moreover, the melting temperature in the data set on HeLa Kyoto [4] (cell cycle stage: G1/S) came out at 52.2 °C; with HeLa Kyoto [4] (cell cycle stage: mitosis), 51.3 °C.
As for “MFSKLAHLQRFAVLSRGVHSSVASATSVATKKTVQGPPTSDDIFEREYKYGAHNYHPLPVALERGKGIYLWDVEGRKYFDFLSSYSAVNQGHCHPKIVNALKSQVDKLTLTSRAFYNNVLGEYEEYITKLFNYHKVLPMNTGVEAGETACKLARKWGYTVKGIQKYKAKIVFAAGNFWGRTLSAISSSTDPTSYDGFGPFMPGFDIIPYNDLPALERALQDPNVAAFMVEPIQGEAGVVVPDPGYLMGVRELCTRHQVLFIADEIQTGLARTGRWLAVDYENVRPDIVLLGKALSGGLYPVSAVLCDDDIMLTIKPGEHGSTYGGNPLGCRVAIAALEVLEEENLAENADKLGIILRNELMKLPSDVVTAVRGKGLLNAIVIKETKDWDAWKVCLRLRDNGLLAKPTHGDIIRFAPPLVIKEDELRESIEIINKTILSF [OAT]”, in the data set with HeLa Kyoto [1], the “solubility in G1/S (log2)” value stood at 0.246. Further, the thermal stability score in the data set on HeLa Kyoto [2] (setting [5]) is 0.897; in the data set with HeLa Kyoto [2] (cell cycle stage: mitosis), -0.508. Also, the “solubility change mitosis (log2)” value with HeLa Kyoto [3] is -0.168. In addition, the results for the melting temperature with HeLa Kyoto [4] (cell cycle stage: G1/S) and in the data set on HeLa Kyoto [4] (cell cycle stage: mitosis) were 52.8 °C and 53 °C, respectively.
Take “MFSLDSFRKDRAQHRQRQCKLPPPRLPPMCVNPTPGGTISRASRDLLKEFPQPKNLLNSVIGRALGISHAKDKLVYVHTNGPKKKKVTLHIKWPKSVEVEGYGSKKIDAERQAAAAACQLFKGWGLLGPRNELFDAAKYRVLADRFGSPADSWWRPEPTMPPTSWRQLNPESIRPGGPGGLSRSLGREEEEDEEEELEEGTIDVTDFLSMTQQDSHAPLRDSRGSSFEMTDDDSAIRALTQFPLPKNLLAKVIQIATSSSTAKNLMQFHTVGTKTKLSTLTLLWPCPMTFVAKGRRKAEAENKAAALACKKLKSLGLVDRNNEPLTHAMYNLASLRELGETQRRPCTIQVPEPILRKIETFLNHYPVESSWIAPELRLQSDDILPLGKDSGPLSDPITGKPYVPLLEAEEVRLSQSLLELWRRRGPVWQEAPQLPVDPHRDTILNAIEQHPVVVISGDTGCGKTTRIPQLLLERYVTEGRGARCNVIITQPRRISAVSVAQRVSHELGPSLRRNVGFQVRLESKPPSRGGALLFCTVGILLRKLQSNPSLEGVSHVIVDEVHERDVNTDFLLILLKGLQRLNPALRLVLMSATGDNERFSRYFGGCPVIKVPGFMYPVKEHYLEDILAKLGKHQYLHRHRHHESEDECALDLDLVTDLVLHIDARGEPGGILCFLPGWQEIKGVQQRLQEALGMHESKYLILPVHSNIPMMDQKAIFQQPPVGVRKIVLATNIAETSITINDIVHVVDSGLHKEERYDLKTKVSCLETVWVSRANVIQRRGRAGRCQSGFAYHLFPRSRLEKMVPFQVPEILRTPLENLVLQAKIHMPEKTAVEFLSKAVDSPNIKAVDEAVILLQEIGVLDQREYLTTLGQRLAHISTDPRLAKAIVLAAIFRCLHPLLVVVSCLTRDPFSSSLQNRAEVDKVKALLSHDSGSDHLAFVRAVAGWEEVLRWQDRSSRENYLEENLLYAPSLRFIHGLIKQFSENIYEAFLVGKPSDCTLASAQCNEYSEEEELVKGVLMAGLYPNLIQVRQGKVTRQGKFKPNSVTYRTKSGNILLHKSTINREATRLRSRWLTYFMAVKSNGSVFVRDSSQVHPLAVLLLTDGDVHIRDDGRRATISLSDSDLLRLEGDSRTVRLLKELRRALGRMVERSLRSELAALPPSVQEEHGQLLALLAELLRGPCGSFDVRKTADD [DHX30]”: in the data set on HeLa Kyoto [1], the “solubility in G1/S (log2)” value was -1.02. Further, the thermal stability score was -0.697 in the data set on HeLa Kyoto [2] (setting [5]) and -0.349 in the data set on HeLa Kyoto [2] (cell cycle stage: mitosis). Further, in the data set with HeLa Kyoto [3], the “solubility change mitosis (log2)” value came out at 0.218. The melting temperature in the data set with HeLa Kyoto [4] (cell cycle stage: G1/S) was found to be 51.1 °C; in the data set with HeLa Kyoto [4] (cell cycle stage: mitosis), 51.2 °C.
On to “MFSQQQQQQLQQQQQQLQQLQQQQLQQQQLQQQQLLQLQQLLQQSPPQAPLPMAVSRGLPPQQPQQPLLNLQGTNSASLLNGSMLQRALLLQQLQGLDQFAMPPATYDTAGLTMPTATLGNLRGYGMASPGLAAPSLTPPQLATPNLQQFFPQATRQSLLGPPPVGVPMNPSQFNLSGRNPQKQARTSSSTTPNRKDSSSQTMPVEDKSDPPEGSEEAAEPRMDTPEDQDLPPCPEDIAKEKRTPAPEPEPCEASELPAKRLRSSEEPTEKEPPGQLQVKAQPQARMTVPKQTQTPDLLPEALEAQVLPRFQPRVLQVQAQVQSQTQPRIPSTDTQVQPKLQKQAQTQTSPEHLVLQQKQVQPQLQQEAEPQKQVQPQVQPQAHSQGPRQVQLQQEAEPLKQVQPQVQPQAHSQPPRQVQLQLQKQVQTQTYPQVHTQAQPSVQPQEHPPAQVSVQPPEQTHEQPHTQPQVSLLAPEQTPVVVHVCGLEMPPDAVEAGGGMEKTLPEPVGTQVSMEEIQNESACGLDVGECENRAREMPGVWGAGGSLKVTILQSSDSRAFSTVPLTPVPRPSDSVSSTPAATSTPSKQALQFFCYICKASCSSQQEFQDHMSEPQHQQRLGEIQHMSQACLLSLLPVPRDVLETEDEEPPPRRWCNTCQLYYMGDLIQHRRTQDHKIAKQSLRPFCTVCNRYFKTPRKFVEHVKSQGHKDKAKELKSLEKEIAGQDEDHFITVDAVGCFEGDEEEEEDDEDEEEIEVEEELCKQVRSRDISREEWKGSETYSPNTAYGVDFLVPVMGYICRICHKFYHSNSGAQLSHCKSLGHFENLQKYKAAKNPSPTTRPVSRRCAINARNALTALFTSSGRPPSQPNTQDKTPSKVTARPSQPPLPRRSTRLKT [CIZ1]”, for which, in the data set on HeLa Kyoto [1], the “solubility in G1/S (log2)” value is -0.24. The thermal stability score stood at 0.59 in the data set with HeLa Kyoto [2] (setting [5]) and 2.85 in the data set with HeLa Kyoto [2] (cell cycle stage: mitosis). In the data set with HeLa Kyoto [3], the “solubility change mitosis (log2)” value came to 0.168. The melting temperature in the data set on HeLa Kyoto [4] (cell cycle stage: G1/S) is 51.5 °C; with HeLa Kyoto [4] (cell cycle stage: mitosis), 53.7 °C.
